Data taken from paper PMC10397247.

Assays:
Test in all cases: two-hybrid library CCmax;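 further: natural log of median RNA to DNA barcode read ratio; higher means stronger binding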
4H1068-AA = target: T1, 4H1068-AA
T1 chain: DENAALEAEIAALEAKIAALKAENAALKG

4H121-AA = target: T2, 4H121-AA; settings: mean of both orientations
T2 chain: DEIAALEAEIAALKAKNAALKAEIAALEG

4H1350-AA = target: T3, 4H1350-AA; settings: mean of both orientations
T3 chain: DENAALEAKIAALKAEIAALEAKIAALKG

4H1710-AA = target: T4, 4H1710-AA; settings: mean of both orientations
T4 chain: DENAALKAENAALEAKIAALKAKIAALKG

4H1985-AA = target: T5, 4H1985-AA; settings: mean of both orientations
T5 chain: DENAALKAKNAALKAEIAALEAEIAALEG

4H2187-AA = target: T6, 4H2187-AA; settings: mean of both orientations
T6 chain: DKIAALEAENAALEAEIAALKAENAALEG

4H233-AA = target: T7, 4H233-AA; settings: mean of both orientations
T7 chain: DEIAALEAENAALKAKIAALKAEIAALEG

4H2512-AA = target: T8, 4H2512-AA; settings: mean of both orientations
T8 chain: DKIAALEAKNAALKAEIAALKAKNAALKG

4H2646-AA = target: T9, 4H2646-AA; settings: mean of both orientations
T9 chain: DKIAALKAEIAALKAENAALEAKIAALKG

4H2687-AA = target: T10, 4H2687-AA; settings: mean of both orientations
T10 chain: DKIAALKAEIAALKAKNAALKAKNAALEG

4H2705-AA = target: T11, 4H2705-AA; settings: mean of both orientations
T11 chain: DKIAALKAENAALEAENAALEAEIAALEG

4H2758-AA = target: T12, 4H2758-AA; settings: mean of both orientations
T12 chain: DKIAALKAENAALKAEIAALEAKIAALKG

4H278-AA = target: T13, 4H278-AA; settings: mean of both orientations
T13 chain: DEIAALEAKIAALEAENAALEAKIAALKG

4H2873-AA = target: T14, 4H2873-AA; settings: mean of both orientations
T14 chain: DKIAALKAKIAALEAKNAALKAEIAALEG

4H2985-AA = target: T15, 4H2985-AA; settings: mean of both orientations
T15 chain: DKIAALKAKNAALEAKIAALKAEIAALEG

4H3134-AA = target: T16, 4H3134-AA; settings: mean of both orientations
T16 chain: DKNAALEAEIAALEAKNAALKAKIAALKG

4H3409-AA = target: T17, 4H3409-AA; settings: mean of both orientations
T17 chain: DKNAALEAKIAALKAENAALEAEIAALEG

4H3625-AA = target: T18, 4H3625-AA; settings: mean of both orientations
T18 chain: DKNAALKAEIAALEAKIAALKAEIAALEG

4H390-AA = target: T19, 4H390-AA; settings: mean of both orientations
T19 chain: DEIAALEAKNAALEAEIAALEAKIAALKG

4H3940-AA = target: T20, 4H3940-AA; settings: mean of both orientations
T20 chain: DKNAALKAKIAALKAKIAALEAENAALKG

4H510-AA = target: T21, 4H510-AA; settings: mean of both orientations
T21 chain: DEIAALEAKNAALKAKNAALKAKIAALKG

4H775-AA = target: T22, 4H775-AA; settings: mean of both orientations
T22 chain: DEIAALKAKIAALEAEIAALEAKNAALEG

4H816-AA = target: T23, 4H816-AA; settings: mean of both orientations
T23 chain: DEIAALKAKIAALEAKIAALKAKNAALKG

4H87-AA = target: T24, 4H87-AA; settings: mean of both orientations
T24 chain: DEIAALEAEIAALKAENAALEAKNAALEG

Core_NNIN-es_KEKK = target: T25, Core_NNIN-es_KEKK; settings: mean of both orientations
T25 chain: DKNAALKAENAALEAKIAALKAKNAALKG

Core_NNNN-es_KKKE = target: T26, Core_NNNN-es_KKKE; settings: mean of both orientations
T26 chain: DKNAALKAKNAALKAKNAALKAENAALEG

DENAALEAEIAALEAKIAALKAENAALKG [4H1068-AA] gave an interaction score (4H1068-AA) of 0.409, an interaction score (4H121-AA) of -0.866 and an interaction score (4H1350-AA) of 0.695. For the same binder, the interaction score (4H1710-AA) was -1.11, the interaction score (4H1985-AA) was 0.534 and the interaction score (4H2187-AA) was -1.71. The interaction score (4H233-AA) was 0.754, the interaction score (4H2512-AA) was -1.06 and the interaction score (4H2646-AA) was -0.0619. It also gave an interaction score (4H2687-AA) of 0.562, an interaction score (4H2705-AA) of -1.15 and an interaction score (4H2758-AA) of -1.99. The interaction score (4H278-AA) was -0.737, the interaction score (4H2873-AA) was -0.197 and the interaction score (4H2985-AA) was -0.0876. It also gave an interaction score (4H3134-AA) of -0.167, an interaction score (4H3409-AA) of -1.36 and an interaction score (4H3625-AA) of -0.226. It also gave an interaction score (4H390-AA) of -0.217, an interaction score (4H3940-AA) of 2.05 and an interaction score (4H510-AA) of -1.05. For the same binder, the interaction score (4H775-AA) was -0.238, the interaction score (4H816-AA) was 0.372 and the interaction score (4H87-AA) was -0.863.

Work on DENAALEAKNAALKAEIAALEAENAALEG [Core_NNIN-es_EKEE] yielded an interaction score (Core_NNIN-es_KEKK) of 1.32.

For DENAALEAENAALEAENAALEAKNAALKG [Core_NNNN-es_EEEK], the interaction score (Core_NNNN-es_KKKE) was 0.962.
